From US20260265370A1 (SUZHOU TRANSCENTA THERAPEUTICS, published 2026)

Target: T1, human PD-L1 (human, UniProt Q9NZQ7 19-290)
T1 construct: whole, on cells; Endogenous protein in FFPE tumour sections; also called PD-ligand 1
Assay: IHC on FFPE GC-02-0007 PDX tumour sections, Leica BOND III, membrane staining
Description: PD-L1 expression status was also assessed to better understand the immune modulation pre- and post Hu18B10-HaLa treatment in GC-02-0007 PDX tumor samples. Immunohistochemistry (IHC) was performed on these 4% neutral buffered formalin fixed paraffin-embedded (FFPE) tumor sections using commercially available Rabbit anti-human PD-L1 monoclonal antibodies (SP263). After deparaffinization and rehydration, all slides were proceeded to antigen retrieval in BOND Epitope Retrieval Solution 2 (Leica, AR9640) for 30 minutes at 97-99° C. Subsequently quenched, blocked with peroxidase inhibitor and incubated with appropriately diluted SP263 (0.2 ug/mL) antibodies for 30 minutes at room temperature (RT). Antibody binding was visualized with BOND Polymer Detection (Leica, DS9800) for 8 minutes on auto-staining Leica BOND III. Sections were finally counterstained with Hematoxylin and mounted with permanent mounting medium.

T1 sequence (Q9NZQ7 19-290): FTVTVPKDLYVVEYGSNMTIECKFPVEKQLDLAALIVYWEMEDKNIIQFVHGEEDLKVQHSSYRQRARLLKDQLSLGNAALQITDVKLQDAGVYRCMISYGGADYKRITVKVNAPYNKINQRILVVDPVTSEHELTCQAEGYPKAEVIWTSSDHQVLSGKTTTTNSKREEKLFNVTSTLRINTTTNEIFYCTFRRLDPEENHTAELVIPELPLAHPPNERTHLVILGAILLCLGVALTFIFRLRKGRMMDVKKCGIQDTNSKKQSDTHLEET

binding result: binds
B1: Rabbit anti-human PD-L1 monoclonal antibody SP263 (antibody, V domains shown)
VH: QSLEESGGRLVTPGTPLTLTCTASGFSLSNHAISWVRQAPGKGLEWIGTINSDTHTYYATWPKGRFTISKTSSTTVDLKMTSPTTEDTATYFCARRIFSSSNIWGPGTLVTVSS
VL: AIVMTQTSSPVSAVVGGTVAINCQASQSIYNNNWLSWFQQKPGQPPKLLIYLASTLASGVPSRFKGSGSGTQFTLTISDVVCDDAATYYCIGGESSNNDGIAFGGGTEVVVK
notes: Commercially available rabbit monoclonal antibody; also called anti-PD-L1 diagnostic antibody SP263
